Data published in US7056679 (ANTYRA, dated 2006).

T1: DGI-2 polypeptide (UniProt Q15004 1-111, limits assumed)
T1 construct: Soluble recombinant protein coated at 500 ng/well; vector tag of pIVEX2.3-MCS not described for this construct; also called KIAA0101
T1 sequence (looked up): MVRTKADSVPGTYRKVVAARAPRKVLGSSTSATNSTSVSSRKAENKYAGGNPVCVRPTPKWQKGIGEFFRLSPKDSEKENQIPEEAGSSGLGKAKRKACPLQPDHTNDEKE


Tests used:
Experiment in all cases: phage ELISA
DGI-2 polypeptide = target: T1, DGI-2 polypeptide
Experimental: (§1) For analysis of individual target binders, colonies were picked and phage prepared as described above using helper phage, M13KO7. Ninety-six-well microtiter plates were coated with 500 ng/well of specific target protein, 500 ng/well lactate dehydrogenase (LDH) irrelevant or non-specific target, 500 ng/well of positive control antibody raised against ETAG, and negative control of non-fat milk powder-PBS 2% at 4° C. overnight. Plates were then blocked with 350 microliters/well PBS containing 2% non-fat milk for 1 hr at room temperature. One hundred microliters per well of phage from isolated clones were added and plates were incubated at room temperature for 2 hr after centrifuging samples for 20 minutes at 3500 rpm at 4° C. The phage solution was then removed, and the wells were washed three times with PBS at room temperature. Antibody raised against M13 conjugated to horseradish peroxidase (Pharmacia) was diluted 1:3000 in PBS-Tween and added to each well (100 µl/well). Incubation was for 1 hr at room temperature, followed by washing with PBS-(0.5%) Tween 3 times as described. Color was developed by addition of ABTS solution (100 µl/well; Boehringer, Indianapolis, Ind.). Plates were analyzed at 405 nm. A clone was considered "positive" if the $A405$ of the well was $\geq$2-fold over background.

[1] = target: T2, lactate dehydrogenase (LDH)
T2 construct: Coated at 500 ng/well as non-specific target; also called LDH polypeptide
Experimental: as §1

[2] = target: T3, antibody raised against ETAG
T3 construct: Coated at 500 ng/well; also called E-tag antibody
Experimental: as §1

Binder | DGI-2 (OD) (DGI-2 polypeptide) | DGI-2/LDH (DGI-2 polypeptide) [ratio] | LDH (OD) [1] [OD] | ETAG (OD) [2] [OD]
RGVNSDMPRLYICRADGQGQAAAGAPVPYPDPLEPRP [DGI-2-20F-PP-H6] | 1.6 | 1.9 | 0.8 | 18.9
GAIRLSGAAWTASRTGGRASAAAGAPVPYPDPLEPRP [DGI-2-20F-PP-E7] | 1.6 | 1.8 | 0.9 | 21.5
RTLFINGGCCGKGSGGGRPLAAAGAPVPYPDPLEPRP [DGI-2-20F-PP-G1] | 1.4 | 1.4 | 1 | 21.8
GWSDFVATGSWSGQVSAALNAAAGAPVPYPDPLEPRP [DGI-2-20R-4-F120] | 13.6 | 12.2 | 1.1 | 16.5
DGRGWGAMWMRWAEGLGADIAAAGAPVPYPDPLEPRP [DGI-2-20R-4-G114] | 12.9 | 11 | 1.2 | 16.5
VWRDWVNGTVGLRNREKPGVAAAGAPVPYPDPLEPRP [DGI-2-20R-3-A5] | 10.9 | 9.8 | 1.1 | 14.9
VWAAWVEGSLLSPRQEPVRDAAAGAPVPYPDPLEPRP [DGI-2-20R-4-G4] | 10.2 | 9.8 | 1 | 13.6
GHGAGDWAAELFVCPVAFLTGFAWRAAAGAPVPYPDPLEPRP [DGI-2-20R-4-H2] | 9.9 | 9.2 | 1.1 | 12.9
WWREWVDGSLRGGGGTVLKDAAAGAPVPYPDPLEPRP [DGI-2-20R-3-A122] | 9.6 | 9.4 | 1 | 15.1
RRGVCEIFTGWCVGQTNERPAAAGAPVPYPDPLEPRP [DGI-2-20R-4-H626] | 9.6 | 8.8 | 1.1 | 13.5
GRWDGWEVCGIWGADDCASGAAAGAPVPYPDPLEPRP [DGI-2-20R-4-H1] | 9.3 | 7.8 | 1.2 | 14
LSLEGGWMWDTKGGDGGSAQAAAGAPVPYPDPLEPRP [DGI-2-20R-4-F93] | 9 | 8.4 | 1.1 | 19.5
LWRRWSEGQLLGDGELRGDGAAAGAPVPYPDPLEPRP [DGI-2-20R-3-B52] | 8.7 | 8.4 | 1 | 15.8
CGGWGAMWEAWVQGLNGAGCAAAGAPVPYPDPLEPRP [DGI-2-20R-3-D4] | 8.7 | 8.1 | 1.1 | 18.9
SRELGKWGRLWQDWSSGNFSAAAGAPVPYPDPLEPRP [DGI-2-20R-3-C11] | 8.6 | 8.3 | 1 | 18.9
RKGWGVFCIPGLRFCDWSDPAAAGAPVPYPDPLEPRP [DGI-2-20R-3-B4] | 8.4 | 8.6 | 1 | 17.4
LFSATGCALMSGFCLGSDGSAAAGAPVPYPDPLEPRP [DGI-2-20R-3-C1] | 8.2 | 8.3 | 1 | 14
FRMWVQSCFWGQPGTGCGEGAAAGAPVPYPDPLEPRP [DGI-2-20R-3-D2] | 7.9 | 7.5 | 1.1 | 14.3
TIDVARRFGYGWWDLWLDGDAAAGAPVPYPDPLEPRP [DGI-2-20R-3-C3] | 7.9 | 7 | 1.1 | 20.2
VSFAHDWGRWWYQWEVGAAAGAPVPYPDPLEPRP [DGI-2-20R-4-G22] | 7.9 | 6.5 | 1.2 | 12.9
DGI-2-40F-3-D1044 (peptide) peptide: DRVARLATPTAGTMAAGSLGYERTVGCDSQDWFRCVVEGLAAAGAPVPYPDPLEPRP | 7.9 | 6.2 | 1.3 | 17.7
QLDCLVWGLPGLRCDRPLEQAAAGAPVPYPDPLEPRP [DGI-2-20R-3-B10] | 7.8 | 7.6 | 1 | 17
RDTMCGSVSWGIPGCEYSGMAAAGAPVPYPDPLEPRP [DGI-2-20R-4-G122] | 7.6 | 7.1 | 1.1 | 13.9
QMSRVAFSPGESWRRWVEGVAAAGAPVPYPDPLEPRP [DGI-2-20R-3-A2] | 7.5 | 7.5 | 1 | 14.2
DQRVVGSGWFERLRNWYDRAAAAGAPVPYPDPLEPRP [DGI-2-20R-4-G99] | 7.5 | 7.2 | 1 | 14.1
EGNWFCAVFRGFCVGDRGPEAAAGAPVPYPDPLEPRP [DGI-2-20R-3-A1] | 7.1 | 6.3 | 1.1 | 11.1
VLGADAGMIWFMDGCGIRCRAAAGAPVPYPDPLEPRP [DGI-2-20R-4-E6] | 7 | 7 | 1 | 19.1
RSIRLQLIDEACQFFDGLCTAAAGAPVPYPDPLEPRP [DGI-2-20R-3-A8] | 6.9 | 6.4 | 1.1 | 15.3
DGI-2-40F-4-F97 (peptide) peptide: QVGGMTQVGATVLSVVTGRGSCDGEDAWYPPGVTVGLGLCAAAGAPVPYPDPLEPRP | 6.7 | 6.4 | 1 | 14
